From paper PMC6555819, “Comprehensive study of nuclear receptor DNA binding provides a revised framework for understanding receptor specificity”
Substitutions are numbered along the chain they refer to.

B1: NRC3_wobSeed109_DR4_T26A_o1 (dsDNA)
DNA 1: GCCGTCCAAGGTCATAGGAGGTCAGAGAAGACAGATGCGATTGACAGCGTAGAATGAAGG
DNA 2: CCTTCATTCTACGCTGTCAATCGCATCTGTCTTCTCTGACCTCCTATGACCTTGGACGGC
B2: NRC3_wobSeed98_DR4_G15A_o1 (dsDNA)
DNA 1: GCACTAGTTGGTCAACTGAGGTCACACACAATTCGGGCGATTGACAGCGTAGAATGAAGG
DNA 2: CCTTCATTCTACGCTGTCAATCGCCCGAATTGTGTGTGACCTCAGTTGACCAACTAGTGC
B3: NRC3_wobSeed46_DR1_G13C_o1 (dsDNA)
DNA 1: GCTTACCAAGGTCAAAGGTCGTTGATGCACGCCTTGGCGATTGACAGCGTAGAATGAAGG
DNA 2: CCTTCATTCTACGCTGTCAATCGCCAAGGCGTGCATCAACGACCTTTGACCTTGGTAAGC
B4: NRC3_wobSeed42_DR1_A8G_o1 (dsDNA)
DNA 1: GCTATACGGGGTCAAAGGCCAGAGTACGAATGTCGAGCGATTGACAGCGTAGAATGAAGG
DNA 2: CCTTCATTCTACGCTGTCAATCGCTCGACATTCGTACTCTGGCCTTTGACCCCGTATAGC
B5: NRC3_wobSeed117_DR4_A15C_o1 (dsDNA)
DNA 1: GCCGTCAAAGTTCACCTAAGGTAACGTAAAGCACGCGCGATTGACAGCGTAGAATGAAGG
DNA 2: CCTTCATTCTACGCTGTCAATCGCGCGTGCTTTACGTTACCTTAGGTGAACTTTGACGGC
B6: NRC3_wobSeed117_DR4_C16T_o1 (dsDNA)
DNA 1: B5 DNA 1 with C15A, C16T
DNA 2: B5 DNA 2 with G45A, G46T
B7: NRC3_wobSeed28_DR1_C12T_o1 (dsDNA)
DNA 1: GCCCTACTGGGTCAAAGGTCATTGATTCCAATGCTCGCGATTGACAGCGTAGAATGAAGG
DNA 2: CCTTCATTCTACGCTGTCAATCGCGAGCATTGGAATCAATGACCTTTGACCCAGTAGGGC
B8: NRC3_wobSeed106_DR4_G15T_o1 (dsDNA)
DNA 1: GCCTCGAAAGGTCGTTTGAGGTGAGTATACGGATAAGCGATTGACAGCGTAGAATGAAGG
DNA 2: CCTTCATTCTACGCTGTCAATCGCTTATCCGTATACTCACCTCAAACGACCTTTCGAGGC
B9: NRC3_wobSeed106_DR4_G15A_o1 (dsDNA)
DNA 1: B8 DNA 1 with T15A
DNA 2: B8 DNA 2 with A46T

Assays:
THRa:RXRa = THRa:RXRa (Homo sapiens, UniProt P10827;P19793 full;full); assay: no ligand; PBM; 90 nM : 90 nM RXRa; PBS pH 7.4, 2% milk, 0.02% Triton X-100, 1 mM DTT, BSA, 0.4 mg/ml salmon testes DNA; settings: tags: His kept;His cleaved; copies: 1;1; label: surface-attached array probe
PXR:RXRa = PXR:RXRa (Homo sapiens, UniProt O75469;P19793 full;full); assay: no ligand; PBM; 270 nM : 90 nM RXRa; PBS pH 7.4, 2% milk, 0.02% Triton X-100, 1 mM DTT, BSA, 0.4 mg/ml salmon testes DNA; settings: tags: His kept;His cleaved; copies: 1;1; label: surface-attached array probe
Summary of the method: (§1)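 Antibodies against each partner of ligand-free nuclear receptor dimers (one per run) detected binding on custom Agilent 4×180K protein-binding microarrays after 1 h incubation. The double-stranded probes had 34-nt variable regions carrying direct-repeat seeds, single-nucleotide variants, half-site ablations and random human genomic background sequences. Binding z-scores, from regression-normalized fluorescence, use the random background probes as reference.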

LXRa:RXRa = LXRa:RXRa (Homo sapiens, UniProt Q13133;P19793 full;full); assay: as above; settings: tags: His kept;His cleaved; copies: 1;1; label: surface-attached array probe
Summary of the method: as §1

RARb:RXRa = RARb:RXRa (Homo sapiens, UniProt P10826;P19793 full;full); assay: as above; settings: tags: His kept;His cleaved; copies: 1;1; label: surface-attached array probe
Summary of the method: as §1

LXRb:RXRa = LXRb:RXRa (Homo sapiens, UniProt P55055;P19793 full;full); assay: as above; settings: tags: His kept;His cleaved; copies: 1;1; label: surface-attached array probe
Summary of the method: as §1

RARg:RXRa = RARg:RXRa (Homo sapiens, UniProt P13631;P19793 full;full); assay: as above; settings: tags: His kept;His cleaved; copies: 1;1; label: surface-attached array probe
Summary of the method: as §1

FXR:RXRa = FXR:RXRa (Homo sapiens, UniProt Q96RI1;P19793 full;full); assay: as above; settings: tags: His kept;His cleaved; copies: 1;1; label: surface-attached array probe
Summary of the method: as §1

RARa:RXRa = RARa:RXRa (Homo sapiens, UniProt P10276;P19793 full;full); assay: as above; settings: tags: His kept;His cleaved; copies: 1;1; label: surface-attached array probe
Summary of the method: as §1

PPARa:RXRa = PPARa:RXRa (Homo sapiens, UniProt Q07869;P19793 full;full); assay: as above; settings: tags: GST kept;His cleaved; copies: 1;1; label: surface-attached array probe
Summary of the method: as §1

PPARg:RXRa = PPARg:RXRa (Homo sapiens, UniProt P37231;P19793 full;full); assay: no ligand; PBM; 180 nM : 90 nM RXRa; PBS pH 7.4, 2% milk, 0.02% Triton X-100, 1 mM DTT, BSA, 0.4 mg/ml salmon testes DNA; settings: tags: His kept;His cleaved; copies: 1;1; label: surface-attached array probe
RXRa = RXRa (Homo sapiens, UniProt P19793); assay: no ligand; PBM; 180 nM; PBS pH 7.4, 2% milk, 0.02% Triton X-100, 1 mM DTT, BSA, 0.4 mg/ml salmon testes DNA; settings: tags: His cleaved; chain copies: 2; label: surface-attached array probe
VDR:RXRa = VDR:RXRa (Homo sapiens, UniProt P11473;P19793 full;full); assay: no ligand; PBM; 270 nM : 90 nM RXRa; PBS pH 7.4, 2% milk, 0.02% Triton X-100, 1 mM DTT, BSA, 0.4 mg/ml salmon testes DNA; settings: tags: His kept;His cleaved; copies: 1;1; label: surface-attached array probe
Summary of the method: as §1

RARg:RXRa, sequence (P13631 whole entry, chain 1 of 2): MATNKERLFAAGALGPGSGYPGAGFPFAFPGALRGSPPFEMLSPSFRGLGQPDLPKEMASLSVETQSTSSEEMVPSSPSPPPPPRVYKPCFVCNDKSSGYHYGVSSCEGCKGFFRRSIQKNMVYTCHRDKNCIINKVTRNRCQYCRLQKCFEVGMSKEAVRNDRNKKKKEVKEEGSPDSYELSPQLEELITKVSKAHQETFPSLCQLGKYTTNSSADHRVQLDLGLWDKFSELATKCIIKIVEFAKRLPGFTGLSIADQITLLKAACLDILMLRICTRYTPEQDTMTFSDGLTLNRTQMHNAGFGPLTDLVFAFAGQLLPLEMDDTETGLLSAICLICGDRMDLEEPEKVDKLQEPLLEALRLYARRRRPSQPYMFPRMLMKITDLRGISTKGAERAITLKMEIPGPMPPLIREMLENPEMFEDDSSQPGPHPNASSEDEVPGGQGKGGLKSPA
RARg:RXRa, sequence (P19793 whole entry, chain 2 of 2): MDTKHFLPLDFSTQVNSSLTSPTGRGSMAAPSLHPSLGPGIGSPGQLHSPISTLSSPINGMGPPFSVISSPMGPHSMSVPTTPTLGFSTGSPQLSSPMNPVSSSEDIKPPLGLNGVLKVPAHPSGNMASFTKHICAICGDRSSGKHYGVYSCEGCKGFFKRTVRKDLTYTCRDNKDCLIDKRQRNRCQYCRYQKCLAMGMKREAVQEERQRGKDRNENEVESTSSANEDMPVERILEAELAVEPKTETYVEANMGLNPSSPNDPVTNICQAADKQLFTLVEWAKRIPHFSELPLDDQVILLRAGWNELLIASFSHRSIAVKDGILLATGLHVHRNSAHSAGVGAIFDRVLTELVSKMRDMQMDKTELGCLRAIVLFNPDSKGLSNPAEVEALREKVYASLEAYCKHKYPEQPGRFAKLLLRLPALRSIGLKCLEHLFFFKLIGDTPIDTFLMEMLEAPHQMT
PPARg:RXRa, sequence (P37231 29-505, chain 1 of 2): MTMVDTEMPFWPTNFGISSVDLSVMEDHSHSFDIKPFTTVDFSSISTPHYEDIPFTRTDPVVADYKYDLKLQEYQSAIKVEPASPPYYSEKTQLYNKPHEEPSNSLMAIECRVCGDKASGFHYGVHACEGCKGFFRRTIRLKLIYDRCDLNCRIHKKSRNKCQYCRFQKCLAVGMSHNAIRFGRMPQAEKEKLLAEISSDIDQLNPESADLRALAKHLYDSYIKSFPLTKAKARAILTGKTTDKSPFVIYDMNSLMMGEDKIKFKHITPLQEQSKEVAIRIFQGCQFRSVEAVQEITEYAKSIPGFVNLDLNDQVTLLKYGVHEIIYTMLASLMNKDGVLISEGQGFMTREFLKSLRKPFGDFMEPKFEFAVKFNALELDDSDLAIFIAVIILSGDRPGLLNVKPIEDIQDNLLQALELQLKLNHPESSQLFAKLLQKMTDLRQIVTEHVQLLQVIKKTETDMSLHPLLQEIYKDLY
PPARg:RXRa, sequence (P19793 whole entry, chain 2 of 2): as the sequence (P19793 whole entry, chain 2 of 2) above
THRa:RXRa, sequence (P10827 other isoform, or with tags, fused parts or gaps, chain 1 of 2): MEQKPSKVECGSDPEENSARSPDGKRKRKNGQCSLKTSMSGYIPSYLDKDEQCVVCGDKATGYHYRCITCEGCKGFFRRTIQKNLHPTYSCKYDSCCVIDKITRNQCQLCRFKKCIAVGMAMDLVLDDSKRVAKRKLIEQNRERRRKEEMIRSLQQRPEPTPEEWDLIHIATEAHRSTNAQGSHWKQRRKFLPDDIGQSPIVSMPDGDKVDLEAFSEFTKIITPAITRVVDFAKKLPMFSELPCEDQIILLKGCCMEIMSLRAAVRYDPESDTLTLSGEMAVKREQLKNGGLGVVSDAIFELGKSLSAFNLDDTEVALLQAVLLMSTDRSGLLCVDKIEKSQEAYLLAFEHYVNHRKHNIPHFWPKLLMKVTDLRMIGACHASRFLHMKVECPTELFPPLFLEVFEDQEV
THRa:RXRa, sequence (P19793 whole entry, chain 2 of 2): as the sequence (P19793 whole entry, chain 2 of 2) above
RXRa, sequence (P19793 whole entry): as the sequence (P19793 whole entry, chain 2 of 2) above
PPARa:RXRa, sequence (Q07869 whole entry, chain 1 of 2): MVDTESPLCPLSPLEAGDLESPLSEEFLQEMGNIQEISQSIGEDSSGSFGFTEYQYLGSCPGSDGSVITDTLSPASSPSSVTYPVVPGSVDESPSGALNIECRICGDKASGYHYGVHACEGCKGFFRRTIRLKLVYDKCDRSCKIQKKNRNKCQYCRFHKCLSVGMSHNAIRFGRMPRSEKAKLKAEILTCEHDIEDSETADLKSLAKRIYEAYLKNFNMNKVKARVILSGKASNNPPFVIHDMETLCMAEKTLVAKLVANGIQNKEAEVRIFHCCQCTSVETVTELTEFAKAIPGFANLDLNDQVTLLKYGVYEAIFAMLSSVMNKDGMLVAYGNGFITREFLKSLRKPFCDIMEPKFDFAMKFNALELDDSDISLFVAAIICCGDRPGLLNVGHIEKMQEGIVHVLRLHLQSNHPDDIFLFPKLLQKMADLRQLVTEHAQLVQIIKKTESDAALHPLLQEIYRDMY
PPARa:RXRa, sequence (P19793 whole entry, chain 2 of 2): as the sequence (P19793 whole entry, chain 2 of 2) above

Binder | binding signal (THRa:RXRa) | binding signal (PXR:RXRa) | binding signal (LXRa:RXRa) | binding signal (LXRb:RXRa) | binding signal (RARg:RXRa) | binding signal (RARa:RXRa) | binding signal (PPARa:RXRa) | binding signal (PPARg:RXRa) | binding signal (RXRa) | also measured
B1 | 5.62 PBM z-score against 500 random probes | – | – | – | – | – | – | – | – | –
B2 | 5.62 PBM z-score against 500 random probes | – | – | – | – | – | – | – | – | –
B3 | – | 7 PBM z-score against 500 random probes | 7.04 PBM z-score against 500 random probes | 6.04 PBM z-score against 500 random probes | 7.78 PBM z-score against 500 random probes | 8.61 PBM z-score against 500 random probes | 6.85 PBM z-score against 500 random probes | 10.5 PBM z-score against 500 random probes | 9.65 PBM z-score against 500 random probes | binding signal (RARb:RXRa): 5.44 PBM z-score against 500 random probes; binding signal (FXR:RXRa): 8.17 PBM z-score against 500 random probes
B4 | – | 6.54 PBM z-score against 500 random probes | 7.28 PBM z-score against 500 random probes | 7.1 PBM z-score against 500 random probes | 7.59 PBM z-score against 500 random probes | 7.79 PBM z-score against 500 random probes | 7.07 PBM z-score against 500 random probes | 10.7 PBM z-score against 500 random probes | 9.41 PBM z-score against 500 random probes | binding signal (FXR:RXRa): 8.52 PBM z-score against 500 random probes; binding signal (VDR:RXRa): 6.76 PBM z-score against 500 random probes
B5 | 5.54 PBM z-score against 500 random probes | – | – | – | – | – | – | – | – | –
B6 | 5.49 PBM z-score against 500 random probes | – | – | – | – | – | – | – | – | –
B7 | – | 7.26 PBM z-score against 500 random probes | 6.6 PBM z-score against 500 random probes | 6.34 PBM z-score against 500 random probes | 8.01 PBM z-score against 500 random probes | 8.75 PBM z-score against 500 random probes | 7.41 PBM z-score against 500 random probes | 13.5 PBM z-score against 500 random probes | 9.56 PBM z-score against 500 random probes | binding signal (RARb:RXRa): 5.54 PBM z-score against 500 random probes; binding signal (VDR:RXRa): 6.8 PBM z-score against 500 random probes
B8 | 5.63 PBM z-score against 500 random probes | – | – | – | – | – | – | – | – | –
B9 | 5.36 PBM z-score against 500 random probes | – | – | – | – | – | – | – | – | –
